This note sets out measurements from patent US20220153832A1 (PIONYR IMMUNOTHERAPEUTICS, published 2022).

The target of experiment [1] is T1, Mouse MARCO, full length, on cells (mouse, UniProt Q60754 1-518).
T1 construct: whole, on cells; the cell type is named under assay; also called muMARCO; MuMARCO
T1 sequence (looked up): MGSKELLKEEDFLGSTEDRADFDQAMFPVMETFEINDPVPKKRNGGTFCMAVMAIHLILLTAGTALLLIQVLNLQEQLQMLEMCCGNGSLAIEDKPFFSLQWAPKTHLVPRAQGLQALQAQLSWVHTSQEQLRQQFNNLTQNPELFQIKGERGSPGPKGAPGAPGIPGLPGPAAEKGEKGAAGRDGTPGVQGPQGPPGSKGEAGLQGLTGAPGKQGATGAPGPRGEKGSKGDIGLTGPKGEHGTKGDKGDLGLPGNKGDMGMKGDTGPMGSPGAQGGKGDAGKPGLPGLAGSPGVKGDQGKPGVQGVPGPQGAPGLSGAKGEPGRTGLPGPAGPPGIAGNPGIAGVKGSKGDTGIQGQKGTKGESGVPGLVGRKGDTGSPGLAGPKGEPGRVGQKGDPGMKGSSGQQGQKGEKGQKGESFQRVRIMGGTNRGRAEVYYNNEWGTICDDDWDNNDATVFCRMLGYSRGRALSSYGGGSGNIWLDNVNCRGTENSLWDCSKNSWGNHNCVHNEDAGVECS
As to the kind of experiment: flow cytometry, 293T (muMARCO). In general terms: Flow cytometry measures light scatter and fluorescence of single cells or particles in a stream.

The target in experiment [2] is T2, Human Macrophage Receptor with Collagenous Structure (MARCO), full length, on cells (human, UniProt Q9UEW3 1-520).
T2 construct: the cell type is named under assay; also called huMARCO; HuMARCO
T2 sequence: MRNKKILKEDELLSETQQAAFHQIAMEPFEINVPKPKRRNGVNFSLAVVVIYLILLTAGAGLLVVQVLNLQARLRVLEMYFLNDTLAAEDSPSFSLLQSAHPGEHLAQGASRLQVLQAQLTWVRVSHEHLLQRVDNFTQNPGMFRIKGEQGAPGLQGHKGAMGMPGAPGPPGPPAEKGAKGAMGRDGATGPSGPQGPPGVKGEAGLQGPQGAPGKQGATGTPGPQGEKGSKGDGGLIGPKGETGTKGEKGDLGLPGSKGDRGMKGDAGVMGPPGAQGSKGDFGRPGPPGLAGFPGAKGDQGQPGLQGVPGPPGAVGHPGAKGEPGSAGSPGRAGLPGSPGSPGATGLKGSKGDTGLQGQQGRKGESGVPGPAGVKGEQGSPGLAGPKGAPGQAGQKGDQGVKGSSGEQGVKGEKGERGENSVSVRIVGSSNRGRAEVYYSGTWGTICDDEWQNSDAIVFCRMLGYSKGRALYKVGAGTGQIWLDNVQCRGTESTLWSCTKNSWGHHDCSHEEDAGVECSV
As to the kind of experiment: flow cytometry, cells overexpressing human MARCO. As to the method:
Supernatants were removed and cell pellets were resuspended in Ca²⁺+ and Mg²⁺+ Dulbecco's phosphate-buffered saline (D-PBS) at 1×10⁶ cells/ml. 100,000 cells/well were plated onto U-bottom 96-well plates for staining and all centrifugation steps were performed at 1500 rpm at 4° C. for 5 min and samples were kept protected from light throughout the protocol. Cells were pelleted and resuspended in 100 μl of Zombie NIR viability dye (BioLegend) prepared by diluting Zombie NIR dimethyl sulfoxide (DMSO) stock 1000-fold in D-PBS. Cells were stained by incubation for 10 min at room temperature (RT) in the dark, followed by quenching the staining reaction with the addition of 100 μl of Staining Medium (D-PBS containing 2% FBS and 2 mM ethylenediaminetetraacetic acid (EDTA). Cells were pelleted and resuspended in 100 μl of the different antibodies and hybridomas supernatants needed for screening and corresponding isotype controls in freshly prepared staining medium, such as PI-M014 and mIgG2b isotype. All mAbs were tested at the final top concentration of 100 nM (15 μg/ml) followed by an 8-point three-fold serial dilution, including 0 mg/ml control. Staining was carried out for 1 hour (hr) on ice, followed by 2 washes in Staining Medium. Cells were then pelleted and resuspended in 100 μl of allophycocyanin (APC)-conjugated goat anti-mouse IgG (Fc-specific) secondary antibody, prepared by 500-fold dilution of the antibody stocks in Staining Medium, and incubated for 30 min on ice. […] Flow cytometry data were analyzed using FlowJo software (version 10.6.1) and data were processed and further analyzed in Microsoft Excel and GraphPad Prism software (version 8). Half-maximal effective concentrations (EC₅₀) were calculated based on geometric mean fluorescence intensities (gMFI). In case when the plates were not able to be analyzed on the cytometer, cells were pelleted after the washes and fixed in 100 μl of 2% paraformaldehyde (PFA), prepared by diluting the 16% (w/v) stock (Thermo Fisher) in DPBS, for 15 min at RT. […]

The target of experiment [3] is T3, N-terminally polyhistidine tagged human MARCO ECD (147-520), recombinant (human, UniProt Q9UEW3 147-520).
T3 construct: also called PI-RG-3000; recombinant human MARCO; not shown: N-terminal polyhistidine tag
T3 sequence: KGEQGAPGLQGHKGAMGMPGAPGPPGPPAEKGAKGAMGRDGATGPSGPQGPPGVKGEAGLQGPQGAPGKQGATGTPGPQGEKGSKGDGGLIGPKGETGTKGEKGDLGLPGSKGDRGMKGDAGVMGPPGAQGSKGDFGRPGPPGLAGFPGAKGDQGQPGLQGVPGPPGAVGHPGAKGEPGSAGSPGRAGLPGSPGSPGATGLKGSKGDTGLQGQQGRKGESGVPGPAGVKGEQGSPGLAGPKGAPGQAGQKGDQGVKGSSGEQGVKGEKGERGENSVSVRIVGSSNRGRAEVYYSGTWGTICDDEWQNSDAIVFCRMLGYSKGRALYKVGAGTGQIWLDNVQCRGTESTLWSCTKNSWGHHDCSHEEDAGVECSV
The experiment is described as follows: Biacore; sample oxidized with 1.5% H2O2 (24 hr, RT). As to the method:
(PBS)+1 mM AAPH for 6 h, 0.5 and 1.5% H₂O₂ in PBS for 24 h, which was compared to a previous experiment at 40° C. (PBS)+1 mM AAPH for 6 h. Post treatment the samples were analyzed by LC-MS/MS which identified the % modification on isolated peptides derived from the antibody after trypsin digest.
Binding of the stressed samples to recombinant human MARCO was assessed by Biacore.
In general terms: In SPR one partner is held on a chip, and binding of the other changes the refractive index at the surface.

B1: PI-HX-3061 (antibody, rat IgG2a)
heavy: EVQLVESGGGLVQPGSSLKLSCVASKFTFSNYGMNWIRQAPKKGLEWIALIYYNSNNKYYADSVKGRFTISRDNSKNTLYLEMNSLRSEDTAMYYCAKSLTGGSDYFDSWGQGVMVTVSSAETTAPSVYPLAPGTALKSNSMVTLGCLVKGYFPEPVTVTWNSGALSSGVHTFPAVLQSGLYTLTSSVTVPSSTWPSQTVTCNVAHPASSTKVDKKIVPRNCGGDCKPCICTGSEVSSVFIFPPKPKDVLTITLTPKVTCVVVDISQDDPEVHFSWFVDDVEVHTAQTRPPEEQFNSTFRSVSELPILHQDWLNGRTFRCKVTSAAFPSPIEKTISKPEGRTQVPHVYTMSPTKEEMTQNEVSITCMVKGFYPPDIYVEWQMNGQPQENYKNTPPTMDTDGSYFLYSKLNVKKEKWQQGNTFTCSVLHEGLHNHHTEKSLSHSP
light: DVQMTQSPSYLAASPGESVSISCKASKSIGTFLAWYQEKPEKTNKLLIYSGSTLQSGTPSRFSGSGSGTDFTLTIRNLEPEDFAVYYCQQHDEYPFTFGSGTKLEIKRADAAPTVSIFPPSTEQLATGGASVVCLMNNFYPRDISVKWKIDGTERRDGVLDSVTDQDSKDSTYSMSSTLSLTKADYESHNLYTCEVVHKTSSSPVVKSFNRNEC
notes: Parental rat hybridoma, rat IgG2a; cross reactive with human and mouse MARCO
B1 had an EC50 in experiment [1] of 2.53 nM.

B2: PI-3010-AB (antibody, human IgG1, kappa)
heavy: not shown
light: DIQMTQSPASLSTSLGETVSIECLASEGISNDLAWYQQKSGKSPQLLIYAASRLQDGVPSRFSGSGSGTRYSLKISGMQPEDEADYFCQQSYKYPLTFGSGTKLEIKRTVAAPSVFIFPPSDEQLKSGTASVVCLLNNFYPREAKVQWKVDNALQSGNSQESVTEQDSKDSTYSLSSTLTLSKADYEKHKVYACEVTHQGLSSPVTKSFNRGEC
In experiment [2], B2 displayed an EC50 of 0.68 nM.

B3: PI-3015-AB (antibody, human IgG1, kappa)
heavy: not shown
light: DIQMTQSPSSLSASVGDRVTITCRASEGISNDLAWYQQKPGKAPKLLIYAASRLQSGVPSRFSGSGSGTDYTLTISSMQPEDFATYYCQQSYKYPLTFGQGTKLEIKRTVAAPSVFIFPPSDEQLKSGTASVVCLLNNFYPREAKVQWKVDNALQSGNSQESVTEQDSKDSTYSLSSTLTLSKADYEKHKVYACEVTHQGLSSPVTKSFNRGEC
Take B3: the equilibrium dissociation constant (Kd) in experiment [3] turned out to be 1.07 nM.

As a reminder, the EC50 is the concentration needed to bring the measured effect to its halfway point. Low values mean greater potency, high ones weaker potency. Usually Kd stands for the free concentration of one partner at which half of the binding sites on the other are occupied at equilibrium, for simple one-to-one binding.
